In the supplement of paper PMC5998384:

Experiments:
HeLa Kyoto [1] = assay: solubility in G1/S (NP-40 vs SDS abundance) (log2 ratio); higher = more soluble; conditions: cell cycle stage: G1/S
HeLa Kyoto [2] = assay: melting temperature (median over replicates), in situ; higher = more thermally stable
HeLa Kyoto [3] = assay: solubility change mitosis vs G1/S (difference of NP-40 vs SDS log2 ratios) (log2 ratio difference); higher = more soluble in mitosis
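Throughout, for melting temperature (median over replicates), in situ: HeLa Kyoto cells synchronized by double thymidine or nocodazole block, proteins quantified by TMT10plex mass spectrometry, three independent biological replicates.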
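Throughout, for solubility change mitosis vs G1/S (difference of NP-40 vs SDS log2 ratios): synchronized HeLa Kyoto cells (double thymidine block for G1/S, nocodazole release for mitosis), protein amounts in NP-40 versus SDS lysates quantified by mass spectrometry, three biological replicates.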
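Throughout, for solubility in G1/S (NP-40 vs SDS abundance): HeLa Kyoto cells arrested at G1/S by double thymidine block, proteins quantified by TMT10plex mass spectrometry in mild NP-40 versus SDS extracts, three biological replicates.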

Sequence | solubility in G1/S (log2) (HeLa Kyoto [1]) | melting temperature (HeLa Kyoto [2]; cell cycle stage: G1/S) | melting temperature (HeLa Kyoto [2]; cell cycle stage: mitosis) | solubility change mitosis (log2) (HeLa Kyoto [3])
MASYYEILDVPRSASADDIKKAYRRKALQWHPDKNPDNKEFAEKKFKEVAEAYEVLSDKHKREIYDRYGREGLTGTGTGPSRAEAGSGGPGFTFTFRSPEEVFREFFGSGDPFAELFDDLGPFSELQNRGSRHSGPFFTFSSSFPGHSDFSSSSFSFSPGAGAFRSVSTSTTFVQGRRITTRRIMENGQERVEVEEDGQLKSVTINGVPDDLALGLELSRREQQPSVTSRSGGTQVQQTPASCPLDSDLSEDEDLQLAMAYSLSEMEAAGKKPAGGREAQHRRQGRPKAQHQDPGLGGTQEGARGEATKRSPSPEEKASRCLIL [DNAJB2] | 0.0895 | 50.2 °C | 50.5 °C | 0.274
MAPERLRSRALSAFKLRGLLLRGEAIKYLTEALQSISELELEDKLEKIINAVEKQPLSSNMIERSVVEAAVQECSQSVDETIEHVFNIIGAFDIPRFVYNSERKKFLPLLMTNHPAPNLFGTPRDKAEMFRERYTILHQRTHRHELFTPPVIGSHPDESGSKFQLKTIETLLGSTTKIGDAIVLGMITQLKEGKFFLEDPTGTVQLDLSKAQFHSGLYTEACFVLAEGWFEDQVFHVNAFGFPPTEPSSTTRAYYGNINFFGGPSNTSVKTSAKLKQLEEENKDAMFVFLSDVWLDQVEVLEKLRIMFAGYSPAPPTCFILCGNFSSAPYGKNQVQALKDSLKTLADIICEYPDIHQSSRFVFVPGPEDPGFGSILPRPPLAESITNEFRQRVPFSVFTTNPCRIQYCTQEITVFREDLVNKMCRNCVRFPSSNLAIPNHFVKTILSQGHLTPLPLYVCPVYWAYDYALRVYPVPDLLVIADKYDPFTTTNTECLCINPGSFPRSGFSFKVFYPSNKTVEDSKLQGF [POLE2] | 0.148 | 50 °C | 49.6 °C | -0.129
MSLKMDNRDVAGKANRWFGVAPPKSGKMNMNILHQEELIAQKKREIEAKMEQKAKQNQVASPQPPHPGEITNAHNSSCISNKFANDGSFLQQFLKLQKAQTSTDAPTSAPSAPPSTPTPSAGKRSLLISRRTGLGLASLPGPVKSYSHAKQLPVAHRPSVFQSPDEDEEEDYEQWLEIKVSPPEGAETRKVIEKLARFVAEGGPELEKVAMEDYKDNPAFAFLHDKNSREFLYYRKKVAEIRKEAQKSQAASQKVSPPEDEEVKNLAEKLARFIADGGPEVETIALQNNRENQAFSFLYEPNSQGYKYYRQKLEEFRKAKASSTGSFTAPDPGLKRKSPPEALSGSLPPATTCPASSTPAPTIIPAPAAPGKPASAATVKRKRKSRWGPEEDKVELPPAELVQRDVDASPSPLSVQDLKGLGYEKGKPVGLVGVTELSDAQKKQLKEQQEMQQMYDMIMQHKRAMQDMQLLWEKAVQQHQHGYDSDEEVDSELGTWEHQLRRMEMDKTREWAEQLTKMGRGKHFIGDFLPPDELEKFMETFKALKEGREPDYSEYKEFKLTVENIGYQMLMKMGWKEGEGLGSEGQGIKNPVNKGTTTVDGAGFGIDRPAELSKEDDEYEAFRKRMMLAYRFRPNPLNNPRRPYY [SUGP1] | 0.221 | 47.3 °C | 50.8 °C | 0.255
MGPPRHPQAGEIEAGGAGGGRRLQVEMSSQQFPRLGAPSTGLSQAPSQIANSGSAGLINPAATVNDESGRDSEVSAREHMSSSSSLQSREEKQEPVVVRPYPQVQMLSTHHAVASATPVAVTAPPAHLTPAVPLSFSEGLMKPPPKPTMPSRPIAPAPPSTLSLPPKVPGQVTVTMESSIPQASAIPVATISGQQGHPSNLHHIMTTNVQMSIIRSNAPGPPLHIGASHLPRGAAAAAVMSSSKVTTVLRPTSQLPNAATAQPAVQHIIHQPIQSRPPVTTSNAIPPAVVATVSATRAQSPVITTTAAHATDSALSRPTLSIQHPPSAAISIQRPAQSRDVTTRITLPSHPALGTPKQQLHTMAQKTIFSTGTPVAAATVAPILATNTIPSATTAGSVSHTQAPTSTIVTMTVPSHSSHATAVTTSNIPVAKVVPQQITHTSPRIQPDYPAERSSLIPISGHRASPNPVAMETRSDNRPSVPVQFQYFLPTYPPSAYPLAAHTYTPITSSVSTIRQYPVSAQAPNSAITAQTGVGVASTVHLNPMQLMTVDASHARHIQGIQPAPISTQGIQPAPIGTPGIQPAPLGTQGIHSATPINTQGLQPAPMGTQQPQPEGKTSAVVLADGATIVANPISNPFSAAPAATTVVQTHSQSASTNAPAQGSSPRPSILRKKPATDGAKPKSEIHVSMATPVTVSMETVSNQNNDQPTIAVPPTAQQPPPTIPTMIAAASPPSQPAVALSTIPGAVPITPPITTIAAAPPPSVTVGGSLSSVLGPPVPEIKVKEEVEPMDIMRPVSAVPPLATNTVSPSLALLANNLSMPTSDLPPGASPRKKPRKQQHVISTEEGDMMETNSTDDEKSTAKSLLVKAEKRKSPPKEYIDEEGVRYVPVRPRPPITLLRHYRNPWKAAYHHFQRYSDVRVKEEKKAMLQEIANQKGVSCRAQGWKVHLCAAQLLQLTNLEHDVYERLTNLQEGIIPKKKAATDDDLHRINELIQGNMQRCKLVMDQISEARDSMLKVLDHKDRVLKLLNKNGTVKKVSKLKRKEKV [SAP130] | 0.147 | 50.5 °C | 50 °C | -0.0185
MRRAWILLTLGLVACVSAESRAELTSDKDMYLDNSSIEEASGVYPIDDDDYASASGSGADEDVESPELTTSRPLPKILLTSAAPKVETTTLNIQNKIPAQTKSPEETDKEKVHLSDSERKMDPAEEDTNVYTEKHSDSLFKRTEVLAAVIAGGVIGFLFAIFLILLLVYRMRKKDEGSYDLGERKPSSAAYQKAPTKEFYA [SDC2] | -0.422 | 55.6 °C | 59.2 °C | -0.902
MAGPESDAQYQFTGIKKYFNSYTLTGRMNCVLATYGSIALIVLYFKLRSKKTPAVKAT [USMG5] | -1.21 | 55 °C | 52.6 °C | -0.0955
MAAAPQAPGRGSLRKTRPLVVKTSLNNPYIIRWSALESEDMHFILQTLEDRLKAIGLQKIEDKKKKNKTPFLKKESREKCSIAVDISENLKEKKTDAKQQVSGWTPAHVRKQLAIGVNEVTRALERRELLLVLVCKSVKPAMITSHLIQLSLSRSVPACQVPRLSERIAPVIGLKCVLALAFKKNTTDFVDEVRAIIPRVPSLSVPWLQDRIEDSGENLETEPLESQDRELLDTSFEDLSKPKRKLADGRQASVTLQPLKIKKLIPNPNKIRKPPKSKKATPK [RPP38] | 0.342 | 53.1 °C | 51.7 °C | -0.0549
MGDDQEDDFPRRLSESMEDLSLDLGALQGSEYLQDLGLGAPSHSQPGETPDSRPTGEEPGRDSLFSSLAGSQDLSRRRSWERSRSCSESWRRLSLDASAVDEEPCLPRTLASLALNLPGGGLKTWTQGCLSGGGTPAESPGKECDSPKKRGRSRSVPVSFYEIRSPEISPGLEVPTPPVQGLEPPVLECMEKDHVEPDHVLIVQQVLQELRQYHGARQRACMSASPGGAHSNLTWFEFLSESEDGAGKNEKSDKSTSVKRRLSCLRSRVTRQKEKGKSPAHLKDKGQDARERRECVNGHQLLQGTFSGPSSCPLCGKPFLSSASLKEHPRGTLLSDGSPALSRNVGMTVSQKGGPQPTPSPAGPGTQLGPITGEMDEADSAFLKFKQTADDSLSLTSPNTESIFVEDPYTASLRSEIESDGHEFEAESWSLAVDAAYAKKQKREVVKRQDVLYELMQTEVHHVRTLKIMLKVYSRALQEELQFSSKAIGRLFPCADDLLETHSHFLARLKERRQESLEEGSDRNYVIQKIGDLLVQQFSGENGERMKEKYGVFCSGHNEAVSHYKLLLQQNKKFQNLIKKIGNFSIVRRLGVQECILLVTQRITKYPVLVERIIQNTEAGTEDYEDLTQALNLIKDIISQVDAKVSECEKGQRLREIAGKMDLKSSSKLKNGLTFRKEDMLQRQLHLEGMLCWKTTSGRLKDILAILLTDVLLLLQEKDQKYVFASVDSKPPVISLQKLIVREVANEEKAMFLISASLQGPEMYEIYTSSKEDRNAWMAHIQRAVESCPDEEEGPFSLPEEERKVVEARATRLRDFQERLSMKDQLIAQSLLEKQQIYLEMAEMGGLEDLPQPRGLFRGGDPSETLQGELILKSAMSEIEGIQSLICRQLGSANGQAEDGGSSTGPPRRAETFAGYDCTNSPTKNGSFKKKVSSTDPRPRDWRGPPNSPDLKLSDSDIPGSSEESPQVVEAPGTESDPRLPTVLESELVQRIQTLSQLLLNLQAVIAHQDSYVETQRAAIQEREKQFRLQSTRGNLLLEQERQRNFEKQREERAALEKLQSQLRHEQQRWERERQWQHQELERAGARLQEREGEARQLRERLEQERAELERQRQAYQHDLERLREAQRAVERERERLELLRRLKKQNTAPGALPPDTLAEAQPPSHPPSFNGEGLEGPRVSMLPSGVGPEYAERPEVARRDSAPTENRLAKSDVPIQLLSATNQFQRQAAVQQQIPTKLAASTKGGKDKGGKSRGSQRWESSASFDLKQQLLLNKLMGKDESTSRNRRSLSPILPGRHSPAPPPDPGFPAPSPPPADSPSEGFSLKAGGTALLPGPPAPSPLPATPLSAKEDASKEDVIFF [ARHGEF18] | 0.0647 | 51.9 °C | 51.1 °C | -0.0175
MSDKPDMAEIEKFDKSKLKKTETQEKNPLPSKETIEQEKQAGES [TMSB4X] | -0.978 | 52.9 °C | 50.4 °C | 0.302
MGAQFSKTAAKGEAAAERPGEAAVASSPSKANGQENGHVKVNGDASPAAAESGAKEELQANGSAPAADKEEPAAAGSGAASPSAAEKGEPAAAAAPEAGASPVEKEAPAEGEAAEPGSPTAAEGEAASAASSTSSPKAEDGATPSPSNETPKKKKKRFSFKKSFKLSGFSFKKNKKEAGEGGEAEAPAAEGGKDEAAGGAAAAAAEAGAASGEQAAAPGEEAAAGEEGAAGGDPQEAKPQEAAVAPEKPPASDETKAAEEPSKVEEKKAEEAGASAAACEAPSAAGPGAPPEQEAAPAEEPAAAAASSACAAPSQEAQPECSPEAPPAEAAE [MARCKS] | -0.36 | 55.6 °C |  | 0.579
MKGSNRNKDHSAEGEGVGKRPKRKCLQWHPLLAKKLLDFSEEEEEEDEEEDIDKVQLLGADGLEQDVGETEDDESPEQRARRPMNAFLLFCKRHRSLVRQEHPRLDNRGATKILADWWAVLDPKEKQKYTDMAKEYKDAFMKANPGYKWCPTTNKPVKSPTPTVNPRKKLWAFPSDSSRDLPSPKKAKTEEMPQLNFGMADPTQMGGLSMLLLAGEHALGTPEVSSGTCRPDVSESPELRQKSPLFQFAEISSSTSHSDASTKQCQTSALFQFAEISSNTSQLGGAEPVKRCGKSALFQLAEMCLASEGMKMEESKLIKAKESDGGRIKELEKGKEEKEIKMEKTDETRLQKEAEFEKSAKENLRDSKELRNFEALQIDDIMAIKMEDPKEIRKEELEEDHKCSHFPDFSYSASSKIIISDVPSRKDHMCHPHGIMIIEDPAALNKPEKLKKKKKKSKMDRHGNDKSTPKKTCKKRQSSESDIESVIYTIEAVAKGDWGIEKLGDTPRKKVRTSSSGKGSILDAKPPKKKVKSREKKMSKEKSSDTTKESRPPDFISISASKNISGETPEGIKAEPLTPMEDALPPSLSGQAKPEDSDCHRKIETCGSRKSERSCKGALYKTLVSEGMLTSLRANVDRGKRSSGKGNSSDHEGCWNEESWTFSQSGTSGSKKFKKTKPKEDCLLGSAKLDEEFEKKFNSLPQYSPVTFDRKCVPVPRKKKKTGNVSSEPTKTSKGPFQSQKKNLFHKIVSKYKHKKEKPNVPEKGSGDKWSNKQLFLDAIHPTEAIFSEDRNTMEPVHKVKNIPSIFNTPEPTTTQEPLVGSQKRKARKTKITHLVRTADGRVSPAGGTLDDKPKEQLQRSLPKATETDCNDKCSHNTEVGETRSSTPEMPAVSAFFSLAALAEVAAMENVHRGQRSTPLTHDGQPKEMPQAPVLISCADQ [BBX] | -0.353 | 47.4 °C | 50 °C | 0.277
